We go through 167 variants from the RNAGym collection of RNA variant scans (doi:10.7554/elife.90254).

Sequences and labels used below:
B1: LINE1-full (parent)
chain: UACGUAGGUGGUUUUCCCCUGAUAGUGCUAAGGGGGCCUGGAAGUUUGGACUGGGCAGAGCUCAACACAGCGUGGCAAAGUGGCUGUGGCUAGACUGCCUCUCUGGAUUCCUCGUCACUCAGCAGGGCAUCUCUGAGAGAAAUGCC

In this data set the parent is B1. Kind of data set: self-cleavage, relative activity (ratio to wild type); higher = more cleavage; in vitro, sequencing; the parent is a self-cleaving ribozyme.
Regarding U87C A138G, the self-cleavage came to 0.28.

Take C84A U130A: the self-cleavage stood at 0.07.

In the case of U85A A129G, the self-cleavage is 0.07.

On to U85A A129U, for which the self-cleavage is 0.12.

U87C: the self-cleavage was determined as 0.22.

Take U87G: the self-cleavage turned out to be 0.21.

With U87A, the self-cleavage was found to be 0.08.

Take U81C G125U: the self-cleavage turned out to be 1.5.

As for U85A G114A, the self-cleavage came out at 0.08.

Regarding U87A A138G, the self-cleavage turned out to be 0.07.

Take U87A U115G: the self-cleavage was 0.13.

On to G83U U143C, for which the self-cleavage was determined as 1.01.

For the variant G88A A107C, the self-cleavage amounted to 0.03.

On to G82U A129G, for which the self-cleavage amounted to 1.54.

In the case of G88A U130C, the self-cleavage is 0.01.

Turning to U87A U119A, the self-cleavage is 0.08.

On to U87A U119C, for which the self-cleavage came to 0.07.

As for U87C A141U, the self-cleavage was found to be 0.2.

Consider U81C G126U, for which the self-cleavage was found to be 1.4.

Turning to U87G A107G, the self-cleavage turned out to be 0.

For the variant G82A U85C, the self-cleavage is 0.23.

In the case of G82A U85A, the self-cleavage was found to be 0.14.

Turning to U87A U112C, the self-cleavage was 0.07.

For the variant C84G U132C, the self-cleavage was 0.11.

C84U A117G: the self-cleavage is 0.2.

Consider C84A A140G, for which the self-cleavage was found to be 0.13.

For the variant G88A C120U, the self-cleavage came to 0.09.

In the case of G88A U91C, the self-cleavage is 0.05.

With G83A A142G, the self-cleavage is 0.97.

With U87A C99U, the self-cleavage was found to be 0.12.

Regarding U87G U104A, the self-cleavage amounted to 0.2.

On to G86A A124G, for which the self-cleavage amounted to 0.02.

For G86A U115C, the self-cleavage was 0.12.

For G83U U108C, the self-cleavage is 1.07.

As to U85C G93U, the self-cleavage came to 0.06.

C84U U108C: the self-cleavage was determined as 0.15.

As to U85G A138U, the self-cleavage stood at 0.

For U87G A124C, the self-cleavage is 0.32.

In the case of U87C A142G, the self-cleavage worked out at 0.25.

With U85C C99A, the self-cleavage stood at 0.16.

As for C84U C98G, the self-cleavage was found to be 0.08.

For the variant U85A C101U, the self-cleavage came out at 0.06.

Regarding U85A C120U, the self-cleavage came out at 0.2.

Turning to U85A C120A, the self-cleavage stood at 0.07.

Consider U87A A117G, for which the self-cleavage is 0.09.

As for U87C A121U, the self-cleavage came to 0.2.

Turning to U87A A129U, the self-cleavage worked out at 0.08.

On to U87G U130C, for which the self-cleavage was determined as 0.41.

Regarding U87G U108C, the self-cleavage is 0.16.

As for U87C G144A, the self-cleavage is 0.24.

As to G83A A140G, the self-cleavage was 0.49.

As to G82A A117G, the self-cleavage was determined as 1.77.

Turning to U81G U115A, the self-cleavage was 1.28.

On to U87A A136G, for which the self-cleavage turned out to be 0.08.

With G86A G127C, the self-cleavage was 0.09.

Consider U81C U85C, for which the self-cleavage was determined as 0.12.

Turning to U87A U109A, the self-cleavage amounted to 0.08.

U87C A117U: the self-cleavage was determined as 0.19.

As for U87C A117C, the self-cleavage turned out to be 0.

Turning to U87C A117G, the self-cleavage turned out to be 0.41.

In the case of U85C U132C, the self-cleavage came out at 0.24.

Regarding U85C U132G, the self-cleavage turned out to be 0.28.

In the case of U85A U134G, the self-cleavage turned out to be 0.12.

As for G88A G122A, the self-cleavage turned out to be 0.07.

As for U85C G139A, the self-cleavage was determined as 0.2.

Take U81C U109C: the self-cleavage was 0.38.

With U85C U115C, the self-cleavage was determined as 0.21.

With U87G U115A, the self-cleavage amounted to 0.24.

As for U81G C113U, the self-cleavage came to 1.99.

For the variant G83A A92U, the self-cleavage turned out to be 0.27.

Regarding U87A G126U, the self-cleavage turned out to be 0.08.

On to G88A U96C, for which the self-cleavage is 0.02.

As to U85C U104C, the self-cleavage was 0.18.

For the variant U85C U104A, the self-cleavage worked out at 0.08.

With C84U A124U, the self-cleavage stood at 0.18.

For the variant U85C C118U, the self-cleavage worked out at 0.1.

G86A U91C: the self-cleavage worked out at 0.07.

For the variant U81C C95U, the self-cleavage turned out to be 0.26.

For U81G A124U, the self-cleavage amounted to 1.75.

In the case of U85A A140G, the self-cleavage was 0.08.

On to U85A A140U, for which the self-cleavage was 0.09.

As to G83A A121C, the self-cleavage was determined as 0.67.

Turning to U85C C123G, the self-cleavage is 0.15.

For G82A U102C, the self-cleavage stood at 1.57.

Turning to C84U A121U, the self-cleavage was 0.11.

Regarding U81C G89A, the self-cleavage was determined as 0.06.

Consider G83U A141G, for which the self-cleavage worked out at 0.99.

U81C C146A: the self-cleavage was 1.8.

With C84A A138G, the self-cleavage was 0.05.

As for U87G A117G, the self-cleavage came out at 0.

For the variant G83A U109A, the self-cleavage was determined as 0.96.

As for U87G A121U, the self-cleavage amounted to 0.2.

As to G86U A129U, the self-cleavage stood at 0.09.

Turning to C84G U104C, the self-cleavage was 0.11.

U85A U100A: the self-cleavage was 0.05.

Consider U81C C101U, for which the self-cleavage is 2.14.

For U87C A94U, the self-cleavage worked out at 0.05.

As to U87C A94G, the self-cleavage came out at 0.14.

Turning to G86A U102C, the self-cleavage was found to be 0.18.

Consider U81C U91A, for which the self-cleavage is 0.56.

Turning to U81C U100C, the self-cleavage came out at 1.29.

Consider U85C A92U, for which the self-cleavage was 0.

As to U81C U87A, the self-cleavage came to 0.1.

Turning to U87A C110A, the self-cleavage was determined as 0.06.

Turning to G86A A94G, the self-cleavage was 0.06.

In the case of U85C A136G, the self-cleavage was found to be 0.2.

In the case of U85C A136U, the self-cleavage stood at 0.24.

With U85C A136C, the self-cleavage came to 0.24.

Consider C84U U119C, for which the self-cleavage came to 0.12.

With U81G A141G, the self-cleavage came to 1.85.

Consider C84U U85C, for which the self-cleavage worked out at 0.

In the case of U87A C131U, the self-cleavage is 0.08.

Turning to U85A U132A, the self-cleavage was determined as 0.08.

As to U85A A94G, the self-cleavage was determined as 0.15.

As for U85C A140U, the self-cleavage stood at 0.16.

For G88A A121G, the self-cleavage was found to be 0.06.

As for U81C U143C, the self-cleavage amounted to 1.61.

Consider U81G A140U, for which the self-cleavage is 1.35.

U85C G144U: the self-cleavage came to 0.19.

Turning to G86A A141U, the self-cleavage was 0.13.

Consider G83A U134C, for which the self-cleavage is 1.13.

On to U87C G88A, for which the self-cleavage worked out at 0.09.

In the case of G83U U102C, the self-cleavage amounted to 0.

For C84U U96C, the self-cleavage stood at 0.04.

U85C U102C: the self-cleavage stood at 0.12.

As to G83A U130C, the self-cleavage turned out to be 1.13.

As for U85A G126U, the self-cleavage is 0.07.

In the case of U85G U109C, the self-cleavage is 0.

As to G82A A141G, the self-cleavage is 1.8.

For the variant G82A, the self-cleavage amounted to 1.75.

As for G82U, the self-cleavage worked out at 1.52.

For the variant G83A A124U, the self-cleavage is 0.79.

As for U85C A138U, the self-cleavage was 0.13.

In the case of U85C A138G, the self-cleavage stood at 0.17.

Consider C84G U96A, for which the self-cleavage amounted to 0.09.

Regarding U87C U96A, the self-cleavage stood at 0.09.

Consider U81C C111U, for which the self-cleavage turned out to be 1.75.

Consider U87C U91G, for which the self-cleavage was 0.08.

For the variant G82A A94G, the self-cleavage is 0.26.

Regarding U81C U134A, the self-cleavage was 0.94.

As to U81C U134C, the self-cleavage was determined as 1.36.

For the variant U87C U119A, the self-cleavage turned out to be 0.19.

Consider U87C U119C, for which the self-cleavage amounted to 0.24.

U87C U119G: the self-cleavage turned out to be 0.

On to G86A U87C, for which the self-cleavage is 0.04.

Take U85A A92G: the self-cleavage is 0.13.

For U85A A92U, the self-cleavage worked out at 0.11.

For U85C U108C, the self-cleavage worked out at 0.22.

On to U87C C146A, for which the self-cleavage is 0.2.

For the variant U87A C113A, the self-cleavage was determined as 0.06.

As for U85G C128U, the self-cleavage is 0.39.

As for G86A U108A, the self-cleavage worked out at 0.02.

With U85A A136G, the self-cleavage turned out to be 0.11.

For the variant U87A A92G, the self-cleavage was found to be 0.13.

For the variant U81C U112C, the self-cleavage was 1.26.

Consider U87C A129G, for which the self-cleavage turned out to be 0.07.

Consider U87C A129U, for which the self-cleavage was 0.15.

U81C U130A: the self-cleavage is 1.27.

In the case of U81C U130C, the self-cleavage amounted to 1.88.

Take U87G A141G: the self-cleavage turned out to be 0.

Turning to U81C U119C, the self-cleavage was 1.84.

For the variant G83U U119A, the self-cleavage was 0.65.

On to G86A U109G, for which the self-cleavage worked out at 0.07.

Consider G86A U134C, for which the self-cleavage turned out to be 0.08.

For U81C G114A, the self-cleavage turned out to be 1.17.

With U85A U91C, the self-cleavage worked out at 0.04.

With U85A U91A, the self-cleavage stood at 0.11.
